Values quoted from earlier work in publication PMC4031507.

Biological target: Cys+1 (UniProt position 252, VVKNKCLAEGT)

In the case of “RecA intein (Mtu RecA intein) with C-extein Cys+1 (Mycobacterium tuberculosis)”, the pKa is listed as 5.8.
